Experimental data from patent publication US7419667B2, “Drug for cancer therapy” (Morinaga Milk Industry Co. Ltd., priority 2004, dated 2008).

Test system: human Burkitt lymphoma Raji cells
Assay: Test Example 1: cytotoxic action of complement and antibody drug (rituximab) with sample added, PI method
Type: cell-based
Conditions: for Cytotoxic activity (%): 100 μl/well of 1000 μg/ml sample, 1 hour, PI
Description: Test Sample 1 was prepared with the lactoferrin hydrolysate mixture prepared in Preparation Example 1, of which concentration was adjusted to 1000 μg/ml in RPMI 1640 medium (Sigma, catalog number: R8758) containing 7.5% fetal bovine serum (Gibco, catalog number: 10099-141) and 1% penicillin-streptomycin (Gibco, catalog number: 15070-063) [henceforth this solution is referred to as “dilution solution”]. Furthermore, Control Sample 1 was prepared by diluting lactoferrin to a concentration of 1000 μg/ml with the dilution solution.
As target cells for measurement of cytotoxic action of complement and antibody drug, human Burkitt lymphoma Raji cells (ATCC CCL-86, obtained from American Type Culture Collection (10801 University Boulevard, Manassas, Va. 20110-2209, USA)) were used, and the cells were suspended at a density of 2×10^6 cells/ml by using the dilution solution to prepare a Raji cell suspension. As an antibody drug solution, rituximab (Zenyaku Kogyo, sold by Nippon Roche) that recognizes the CD20 antigen was used, and it was prepared at a concentration of 200 μg/ml using the dilution solution. As a complement solution, Human serum AB (Cosmobio, catalog number: 832000027) was used. These antibody drug solution and complement solution were also used for Test Examples 2 to 5 described below.
Viability determination of the cells was performed by the method using propidium iodide (PI, Dojindo, catalog number: P378) [Cytometry, Vol. 8, No. 4, pp. 421-426, 1987] or the method using Calcein-AM (Dojindo, catalog number: 341-07901) [Apoptosis, Vol. 3, No. 3, pp. 195-202, 1998].
The Raji cell suspension was added to each well of a 24-well culture plate (NUNC, catalog number: 143982) in a volume of 100 μl each (2×10^5 cells each). The 24 wells were divided into four groups, to wells (6 wells) of one group among them, 50 μl/well of the antibody drug solution and 250 μl/well of dilution solution were added as “Addition of antibody drug”. Further, to wells (6 wells) of another group, 100 μl of the complement solution and 200 μl of the dilution solution were added as “Addition of complement”. Furthermore, to wells (6 wells) of another group, 50 μl of the antibody drug solution, 100 μl of the complement solution and 150 μl of the dilution solution were added as “Addition of antibody drug+complement”. To wells (6 wells) of the remaining one group, 300 μl of the dilution solution was added as “No addition”.
For the aforementioned four groups, 100 μl/well of Test Sample 1 (4 groups×2 wells), Control Sample 1 (4 groups×2 wells) or the dilution solution (4 groups×2 wells) mentioned above was added as “Test Sample Group 1”, “Control Sample Group 1” and “Negative Sample Group 1”, respectively.
By using the 24-well plate prepared as described above, the cells were cultured under the conditions of 37° C. and 5% carbon dioxide (CO2) for 1 hour using an incubator (Napco, catalog number: 5300). Then, the cells of each sample group were collected, and the rate of dead cells in each was examined by the aforementioned method using PI. Cytotoxic activity was calculated based on a case where all the target cells were killed, which was taken as 100%.

B1: Control Sample Group 1: Undecomposed commercially available bovine lactoferrin (Morinaga Milk Industry Co., Ltd.) used as control (protein, listed as Bos taurus)
chain: MKLFVPALLSLGALGLCLAAPRKNVRWCTISQPEWFKCRRWQWRMKKLGAPSITCVRRAFALECIRAIAEKKADAVTLDGGMVFEAGRDPYKLRPVAAEIYGTKESPQTHYYAVAVVKKGSNFQLDQLQGRKSCHTGLGRSAGWIIPMGILRPYLSWTESLEPLQGAVAKFFSASCVPCIDRQAYPNLCQLCKGEGENQCACSSREPYFGYSGAFKCLQDGAGDVAFVKETTVFENLPEKADRDQYELLCLNNSRAPVDAFKECHLAQVPSHAVVARSVDGKEDLIWKLLSKAQEKFGKNKSRSFQLFGSPPGQRDLLFKDSALGFLRIPSKVDSALYLGSRYLTTLKNLRETAEEVKARYTRVVWCAVGPEEQKKCQQWSQQSGQNVTCATASTTDDCIVLVLKGEADALNLDGGYIYTAGKCGLVPVLAENRKSSKHSSLDCVLRPTEGYLAVAVVKKANEGLTWNSLKDKKSCHTAVDRTAGWNIPMGLIVNQTGSCAFDEFFSQSCAPGADPKSRLCALCAGDDQGLDKCVPNSKEKYYGYTGAFRCLAEDVGDVAFVKNDTVWENTNGESTADWAKNLNREDFRLLCLDGTRKPVTEAQSCHLAVAPNHAVVSRSDRAAHVKQVLLHQQALFGKNGKNCPDKFCLFKSETKNLLFNDNTECLAKLGGRPTYEEYLGTEYVTAIANLKKCSTSPLLEACAFLTR
modifications: sig_peptide (1)...(19) Lactoferrin
B1 was tested, and the “change of cytotoxic activity compared with the negative sample group” value (Addition of antibody drug + complement) was “did not increase”, the “Cytotoxic activity (%)” value (Addition of antibody drug + complement (rituximab, human serum AB)) was 24.3% and the “Cytotoxic activity (%)” value (Addition of antibody drug only) was 1.0%. The “Cytotoxic activity (%)” value (Addition of complement only) was 1.2% and the “Cytotoxic activity (%)” value (No addition (no antibody drug, no complement)) was 1.0%.
